Sequences and labels used below:
B1: Histone H1t, residues 44 to 112; numbered along this chain, P22492 (parent)
chain: VSKLITEALSVSQERVGMSLVALKKALAAAGYDVEKNNSRIKLSLKSLVNKGILVQTRGTGASGSFKLS

± gives the uncertainty stated by the source.

In this series the parent is B1. Nature of the series: abundance fitness (aPCA) (normalised: wild type 0, dead -1); higher = more abundant; growth selection in yeast, the domain comes from the species named. The following applies: Homo sapiens.
Regarding VSKLITEALSVEQERVGMSLVALKKALAAAGYDVEKNNSRIKLSLKSLVNKGILVQTRGTGASGSFKLS [S12E], the abundance fitness was -0.429 ± 0.081. The same measure for VSKLITEALSVDQERVGMSLVALKKALAAAGYDVEKNNSRIKLSLKSLVNKGILVQTRGTGASGSFKLS [S12D]: 0.019 ± 0.076. As to VSKLITEALSVMQERVGMSLVALKKALAAAGYDVEKNNSRIKLSLKSLVNKGILVQTRGTGASGSFKLS [S12M], the abundance fitness was -0.093 ± 0.044.

On to VSKLITEALSVKQERVGMSLVALKKALAAAGYDVEKNNSRIKLSLKSLVNKGILVQTRGTGASGSFKLS [S12K], for which the abundance fitness is -0.275 ± 0.054. Then VSKLITEALSVQQERVGMSLVALKKALAAAGYDVEKNNSRIKLSLKSLVNKGILVQTRGTGASGSFKLS [S12Q], with -0.034 ± 0.09; and VSKLITEALSVYQERVGMSLVALKKALAAAGYDVEKNNSRIKLSLKSLVNKGILVQTRGTGASGSFKLS [S12Y], with -0.48 ± 0.042; and VSKLITEALSVFQERVGMSLVALKKALAAAGYDVEKNNSRIKLSLKSLVNKGILVQTRGTGASGSFKLS [S12F], with -0.038 ± 0.032.

Consider VSKLITEALSVNQERVGMSLVALKKALAAAGYDVEKNNSRIKLSLKSLVNKGILVQTRGTGASGSFKLS [S12N], for which the abundance fitness was -0.202 ± 0.052. For the variant VSKLITEALSVGQERVGMSLVALKKALAAAGYDVEKNNSRIKLSLKSLVNKGILVQTRGTGASGSFKLS [S12G], the abundance fitness came out at 0.019 ± 0.048. For VSKLITEALSVHQERVGMSLVALKKALAAAGYDVEKNNSRIKLSLKSLVNKGILVQTRGTGASGSFKLS [S12H], the abundance fitness was -0.353 ± 0.13. The same measure for VSKLITEALSVIQERVGMSLVALKKALAAAGYDVEKNNSRIKLSLKSLVNKGILVQTRGTGASGSFKLS [S12I]: 0.042 ± 0.04; for VSKLITEALSVWQERVGMSLVALKKALAAAGYDVEKNNSRIKLSLKSLVNKGILVQTRGTGASGSFKLS [S12W]: -0.416 ± 0.068; for VSKLITEALSVAQERVGMSLVALKKALAAAGYDVEKNNSRIKLSLKSLVNKGILVQTRGTGASGSFKLS [S12A]: -0.007 ± 0.08. For the variant VSKLITEALSVPQERVGMSLVALKKALAAAGYDVEKNNSRIKLSLKSLVNKGILVQTRGTGASGSFKLS [S12P], the abundance fitness is -0.486 ± 0.18.

Turning to VSKLITEALSVVQERVGMSLVALKKALAAAGYDVEKNNSRIKLSLKSLVNKGILVQTRGTGASGSFKLS [S12V], the abundance fitness was 0.095 ± 0.049. Then VSKLITEALSVCQERVGMSLVALKKALAAAGYDVEKNNSRIKLSLKSLVNKGILVQTRGTGASGSFKLS [S12C], with 0.024 ± 0.067. Then VSKLITEALSVRQERVGMSLVALKKALAAAGYDVEKNNSRIKLSLKSLVNKGILVQTRGTGASGSFKLS [S12R], with -0.511 ± 0.057; and VSKLITEALSVLQERVGMSLVALKKALAAAGYDVEKNNSRIKLSLKSLVNKGILVQTRGTGASGSFKLS [S12L], with -0.005 ± 0.032; and VSKLITEALSNSQERVGMSLVALKKALAAAGYDVEKNNSRIKLSLKSLVNKGILVQTRGTGASGSFKLS [V11N], with -0.144 ± 0.071. Then VSKLITEALSWSQERVGMSLVALKKALAAAGYDVEKNNSRIKLSLKSLVNKGILVQTRGTGASGSFKLS [V11W], with -0.04 ± 0.041; and VSKLITEALSRSQERVGMSLVALKKALAAAGYDVEKNNSRIKLSLKSLVNKGILVQTRGTGASGSFKLS [V11R], with -0.013 ± 0.047.

On to VSKLITEALSYSQERVGMSLVALKKALAAAGYDVEKNNSRIKLSLKSLVNKGILVQTRGTGASGSFKLS [V11Y], for which the abundance fitness was -0.027 ± 0.043. As for VSKLITEALSSSQERVGMSLVALKKALAAAGYDVEKNNSRIKLSLKSLVNKGILVQTRGTGASGSFKLS [V11S], the abundance fitness is -0.061 ± 0.056.

Take VSKLITEALSMSQERVGMSLVALKKALAAAGYDVEKNNSRIKLSLKSLVNKGILVQTRGTGASGSFKLS [V11M]: the abundance fitness is -0.255 ± 0.056. Then VSKLITEALSVSCERVGMSLVALKKALAAAGYDVEKNNSRIKLSLKSLVNKGILVQTRGTGASGSFKLS [Q13C], with -0.233 ± 0.07. With VSKLITEALSVSNERVGMSLVALKKALAAAGYDVEKNNSRIKLSLKSLVNKGILVQTRGTGASGSFKLS [Q13N], the abundance fitness is -0.206 ± 0.053. The same measure for VSKLITEALSVSDERVGMSLVALKKALAAAGYDVEKNNSRIKLSLKSLVNKGILVQTRGTGASGSFKLS [Q13D]: -0.222 ± 0.14; for VSKLITEALSVSKERVGMSLVALKKALAAAGYDVEKNNSRIKLSLKSLVNKGILVQTRGTGASGSFKLS [Q13K]: 0.014 ± 0.05; for VSKLITEALSVSFERVGMSLVALKKALAAAGYDVEKNNSRIKLSLKSLVNKGILVQTRGTGASGSFKLS [Q13F]: -0.613 ± 0.041. As to VSKLITEALSVSTERVGMSLVALKKALAAAGYDVEKNNSRIKLSLKSLVNKGILVQTRGTGASGSFKLS [Q13T], the abundance fitness was -0.128 ± 0.057. As to VSKLITEALSVSWERVGMSLVALKKALAAAGYDVEKNNSRIKLSLKSLVNKGILVQTRGTGASGSFKLS [Q13W], the abundance fitness was -0.471 ± 0.091. For the variant VSKLITEALSVSGERVGMSLVALKKALAAAGYDVEKNNSRIKLSLKSLVNKGILVQTRGTGASGSFKLS [Q13G], the abundance fitness is -0.211 ± 0.065.

Regarding VSKLITEALSVSRERVGMSLVALKKALAAAGYDVEKNNSRIKLSLKSLVNKGILVQTRGTGASGSFKLS [Q13R], the abundance fitness is -0.093 ± 0.062.

On to VSKLITEALSVSYERVGMSLVALKKALAAAGYDVEKNNSRIKLSLKSLVNKGILVQTRGTGASGSFKLS [Q13Y], for which the abundance fitness is -0.212 ± 0.042. Then VSKLITEALSVSEERVGMSLVALKKALAAAGYDVEKNNSRIKLSLKSLVNKGILVQTRGTGASGSFKLS [Q13E], with -0.05 ± 0.14; and VSKLITEALSVSSERVGMSLVALKKALAAAGYDVEKNNSRIKLSLKSLVNKGILVQTRGTGASGSFKLS [Q13S], with -0.242 ± 0.044. Take VSKLITEALSVSMERVGMSLVALKKALAAAGYDVEKNNSRIKLSLKSLVNKGILVQTRGTGASGSFKLS [Q13M]: the abundance fitness was -0.377 ± 0.046.

As for VSKLITEALSVSAERVGMSLVALKKALAAAGYDVEKNNSRIKLSLKSLVNKGILVQTRGTGASGSFKLS [Q13A], the abundance fitness is -0.286 ± 0.095. The same measure for VSKLITEALSVSLERVGMSLVALKKALAAAGYDVEKNNSRIKLSLKSLVNKGILVQTRGTGASGSFKLS [Q13L]: -0.33 ± 0.033.

The values above are taken from the Human Domainome abundance scans (Beltran et al. 2025).
